# Data published in the RNAGym collection of RNA variant scans (doi:10.1073/pnas.2313332121).
# This sample holds only a part of the variants without activity.
# B1: TPR 5TU (parent)
# chain: GGAUCUUCUCGAUCUAACAAAAAAGACAAAUCUGCCACAAAGCUUGAGAGCAUCUUCGGAUGCAGAGGCGGCAGCCUUCGGUGGCGCGAUAGCGCCAACGUUCUCAACUAUGACACGCAAAACGCGUGCUCCGUUGAAUGGAGUUUAUCAUG
# Variants of: B1
# Assay: polymerase ribozyme fitness, log enrichment relative to wild type (log ratio); higher = more active; in vitro selection for triplet polymerase activity
# How it was run: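 In triplicate, a single round of in vitro selection was run on each mutant library, PCR-built and transcribed, covering one subunit of a heterodimeric triplet polymerase ribozyme. Frozen incubation at −7 °C followed annealing with a biotinylated primer, partner subunit and triplets, and extended constructs were then gel-excised, streptavidin-captured and taken through RT-PCR. Fitness is the logarithm of genotype enrichment over wild-type enrichment, from inverse-variance-weighted replicate averages of Illumina-sequenced inputs and outputs. […] only genotypes with ≥10 input reads and ≥1 read per output were kept.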
row,Variant,polymerase ribozyme fitness (log ratio)
1,GGAUCUUCUCGAUCUAACAAAAAGGACAAAUCUGCCACAAAGCUUGAGAGCAUCUUCGGAUGCAGAGGCGGCAGCCUUCGGUGGCGCGAUAGCGCCAACGUUCUCAACUAUGACACGCAAAAUGCGUGCUCCGUUGAAUCGAGUUUAUCAUG [A24G C123U G140C],≤ -4.2
2,GGAUCUUCUCGAUCUAACAAAAAGGAGAAUUCUGCCACAAAGCUUGACAGCAUCUUCGGAUGCAGAGGCGGCAGCCUUCGGUGGCGCGAUAUCGCCAACGUUCUCAACUAUGACACGCAAAACGCGUGCUCCGUUGAAUGGAGUUUAUCAUG [A24G C27G A30U G48C G92U],≤ -4.2
3,GGAUCUUCUCGAUCUAACAAAAAGGACAAAUCUGCCACAAAGCUUGAGAGCAUCUUCGGAUGCAGAGGCCGCAGCCUUUGGUGGCGCGAUAGCGAGAACGUUCUCAACUAUGACACGCAAAACGCGUGCUCCGUUGAAUGGAGUUUAUCAUG [A24G G70C C79U C95A C96G],≤ -4.2
4,GGAUCUUCUCGAUCUAACAAAAAGGACAAAUCUGCCACAAAGCUUGAGAGCAUCAUCGGAUGCAGAGGCGGCAGCCUUCGGUGGCGCGAUAGCGCCAACGUUCUCAACUAUGACACGCAAAACGCGUGCUCCGUUGAAUGGAGUUUAUCAUG [A24G U55A],-3.22
5,GGAUCUUCUCGAUCUAACAAAAAGGACAAAUCUGUCACAAAGCUUGAGAGCAUCUUCGGAUGCAGAGGCGGCAGCCUUCGGUGGCGCGAUAGCGCCAACGUUCUCAACUAUGACACGCAAAACGCGUGCUCCGUUGAAUGGAGUUUAUCAUG [A24G C35U],-3.09
6,GGAUCUUCUCGAUCUAACAAAAAGUACAAAUCUGCCACAAAGCUUGAGAGCAUCUUCGGAUGCAGAGGCGGCAGGCUUCAGUGGGGCGAUAGCGCCAACGUUCUCAACUAUGACACGCAAAACGCGUGCACCGUUGAAUGGCGUUUAUCAUG [A24G G25U C75G G80A C85G U130A A142C],≤ -4.2
7,GGAUCUUCUCGAUCUAACAAAAAGGUCAAAUCUGCCACUAAGCUUGAGAGCAACUUUGAAUGCAGAGUCGGCAGCCUUCGGUGGCACGAUAGCGCCAAAGUUCUCUACUAUGACACGCAAAACGCGUGCUCCGUUGAAUGGAGUUUAUCAUG [A24G A26U A39U U53A C57U G59A G68U G86A C99A A106U],-4.18
8,GGAUCUUCUCGAUCUAACAAAAAUGACAACUCUGCCACAAAGCUUGAUAGCAUCUUCGGGUGCAGAGGCGGCAGCCUUCGGUGGCGCGAUAGCCCCAACGUUCUCAACGAUGUCACGCAAAACGCGUGCUCCGUUGAAUGGAGUUUAUCAUG [A24U A30C G48U A60G G94C U109G A113U],≤ -4.2
9,GGAUCUUCUCGAUCUAACAAAAAGGACAAAUCUGCCACAAAGCUUGAGAGCAUCUUCGGAUGCAGAGGCGGCAGCCUUCGGUCGCGCGAUAGCGCCAACGGUCUCAACUAUGACACGCAAAAAGCGUGCUCCGUUGAAUGUAGUUUAUCAUG [A24G G83C U101G C123A G141U],≤ -4.2
10,GGAUCUUCUCGAUCUAACAAAAAGGACAAAUCUGCCACAUAGUUUGAGCGCAUCUUCGGAUGCAGAGGCGGCAGCCUUCGGUGACGCGAUAGCGCCAACUUUCUCAACUAUGACACGCAAAACAGGUGCUCCGUUGAAUGGAGUGUAUCAUG [A24G A40U C43U A49C G84A G100U G124A C125G U145G],≤ -4.2
11,GGAUCUUCUCGAUCUAACAAAAAGGACAAAUCUGCCACAAAGCUUGAGAGCAUCUUCGGGUGCAGAGACGGCAGCCUUCGGUGGCCCGAUAGCGCCAACGUUCUCAACUAUGACACGCAAAACCCGUGCUCCGUUGAAUGGAGUUUAUCAUG [A24G A60G G68A G86C G124C],≤ -4.2
12,GGAUCUUCUCGAUCUAACAAAAAGGACAAAUCUGCCACAAAGUUUGAGAGCAUCUUCGGAUGCAGAGGCGGCGGCCUUCGGUUGCGCGAUAGCGCCAACGGUCUGAACUAUGACACGCAAAACGCGCGCUCCGUUGAAUCGAGUUUAUCAUG [A24G C43U A73G G83U U101G C105G U127C G140C],≤ -4.2
13,GGAUCUUCUCGAUCUAACAAAAACGACAAAUCUGCCACAAAGCUUGAGAGCAUCUCCGGAUGCCGAGGCGGCAGCCUUCGGUGGCGCGAUAGCGCUAACGUUCUCAACUAUGACACGCAAAACGCGUGCUCCGUUGAAUGGAGUUUAUCAUG [A24C U56C A64C C96U],≤ -4.2
14,GGAUCUUCUCGAUCUAACAAAAAGGACAAAUCUGCCACAAAGCUUGAGAGCAUCUUCGGAUGCAGAGGCGGCAGCCUUCGGUGGCGCUAUAGCGCCAACGUUCUCAACUAUGACACGCAAAACGCGUGCUCCGUUGAAUGGAGUUUAUCAUG [A24G G88U],≤ -4.2
15,GGAUCUUCUCGAUCUAACAAAAAGGACAAAUCUGCCACAAAGCUUGAGAGCAUCUUCGGAUGCAGAGGCGGCAGCCUUCGGUCGCGCGAUAGCGCCAACGUUCUCAACUAUGACACGCAAAACGCGUGCUCCGUUGAAUGGAGUUUAUCAUG [A24G G83C],-3.62
16,GGAUCUUCUCGAUCUAACAAAAAGGACAAAUCUGCCACAAAGCUUGAGAGCAUCUUCGGAUGCAGAGGCGGCAGCCUUCGGUGGCGCGACAGCGCCAACGUUCUCAACUAUGACACGCAAAAGGCGUGCUCCGUUCAAUGGAGUUUGUCAUG [A24G U90C C123G G136C A147G],≤ -4.2
17,GGAUCUUCUCGAUCUAACAAAAAGGAAAAAUCUGCCACAAAGCUUGAGAGCAUCUUCGGAUGCAGAGGCGGCAGCCUUCGGUGUCACGAUAGCGCCAACGUUCUCAACUAUGACACGCAAAACGCGUGCUACGUUGAAUGGAGUUUAUCAUG [A24G C27A G84U G86A C131A],≤ -4.2
18,GGAUCUUCUCGAUCUAACAAAAAGGACAAAUCUGCCACAAAGCUUGAGAGCAUCUUCGGAUGCAGAGGCGGCAGCCUUCGGUGGCGCGAUACCGCCAACGUUCUCAACUAUGACACGCAAAACGCGUGCUCCGUUGAAUGGAGUUUAUCAUG [A24G G92C],-2.81
19,GGAUCUUCUCGAUCUAACAAAAAGGACAAGUCUGCCACAAAGCUUGAGAGCCGCUUCGAAUGCAGAGGCGGCAGCCUUCGGUGGCGUGAUAUCGCCAACGUUCUCAACUAUGACACGCAAAACGCGUACUCCGUUGAAAGGAGUUUAUCAUG [A24G A30G A52C U53G G59A C87U G92U G128A U139A],≤ -4.2
